Experimental data as given in paper PMC4548480, “Structures of the Ultra-High-Affinity Protein–Protein Complexes of Pyocins S2 and AP41 and Their Cognate Immunity Proteins from Pseudomonas aeruginosa” (Journal of Molecular Biology, 2015).

Molecular target: T1, pyocin S2 DNase domain (Pseudomonas aeruginosa, UniProt Q06584 556-688)
T1 construct: pyocin S2, Pseudomonas aeruginosa, residues 556-688 found in the crystal after crystallisation of the intact PyoS2-ImS2 complex with chymotrypsin; The fragment of PyoS2 in the crystal was unknown to the authors; The limits 556-688 are those found in the solved structure; also called PyoS2 DNase; PyoS2; source: crystallised in the presence of chymotrypsin
T1 sequence: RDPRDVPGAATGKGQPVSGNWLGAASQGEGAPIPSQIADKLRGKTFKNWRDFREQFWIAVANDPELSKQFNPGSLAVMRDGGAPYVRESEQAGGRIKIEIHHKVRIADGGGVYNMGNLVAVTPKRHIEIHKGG
Assay: crystal structure; intact PyoS2-ImS2 complex crystallised with chymotrypsin (1:100); 0.2 M sodium bromide, 20% (w/v) PEG 3350, 0.1 M Bis-tris propane pH 6.5; 1.8 Å; four copies of the complex in the asymmetric unit
Conditions: both partners purified

B1: pyocin S2 immunity protein ImS2 (natural protein)
chain: MKSKISEYTEKEFLEFVKDIYTNNKKKFPTEESHIQAVLEFKKLTEHPSGSDLLYYPNENREDSPAGVVKEVKEWRASKGLPGFKAG
notes: immunity protein of pyocin S2 (ImS2), Pseudomonas aeruginosa, full length; the entirety of the immunity protein was present in the crystal
B1: binds.
